What follows are sequences tested on TO-3-N3-2 (biotin conjugate) (assay: pull-down binding Z-score (relative to library population); higher = stronger binding). Conditions: RNA library: Library-2.
In short: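 An RNA library (1 μg) carrying a Cy5 or Cy3 end label was heat-folded in phosphate/NaCl/KCl buffer, then incubated for 60 min at 25 °C with streptavidin beads loaded with 100 pmol of biotin-conjugated small molecule. The beads were washed three times, and bound RNA was released in hot SDS and hybridised to a DNA barcode microarray for 20 h at 55.5 °C. Each binding score was derived by subtracting the signal from beads without compound, averaging the barcoded replicate probes after removing the highest and lowest, and expressing the result as a Z-score relative to the library mean and standard deviation.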

In order of falling “pull-down binding Z-score” value:
1. ACAAGAGGGUGUGGUUGAUUAUGGUGCUAGAUUUUACUUUUACACCAGUAAAACAACUGUAGCGUCACUUAUCAACACACUUAACGAUCUAAAUGAAACUCUUGU  0.984
2. ACGUACUGCCACUAAAGCAUACAAUGUAACACAAGCUUUCGGCAGACGU  0.565
3. ACCUUGAAGGAAAACAGGGU  0.457
4. ACCAACCACCACAAACCUCUAUCACCUCAGCUGUUUUGCAGAGUGGUUUUAGAAAAAUGGCAUUCCCAUCUGGU  0.384
5. ACAAGUUGCAAUUUACAAGUCUUGAAAUUCCACGUAGGAAUGUGGCAACUUUACAAGCUGAAAAUGUAACAGGACUCUUUAAAGAUUGU  0.247
6. AGGUUGGACAGCUGGUGCUGCAGCUU [SHAPE_invivo_SARS-CoV-2_Motif_420]  0.159
7. ACCGGUGGAAUUGCUAUCGCAAUGGCUUGUCUUGUAGGCUUGAUGUGGCUCAGCUACUUCAUUGCUUCUUUCAGACUGUUUGCGCGUACGCGUUCCAUGUGGU  0.131
8. ACAGGGACUACUCCCACCCAAGAAUAGCAUAGAUGCCUUCAAACUCAACAUUAAAUUGUUGGGUGUUGGUGGCAAACCUUGUAUCAAAGUAGCCACUGU  0.116
9. ACAUUAGAUAAUCAAGAUCUCAAUGGUAACUGGUAUGAUUUCGGUGAUUUCAUACAAACCACGCCAGGUAGUGGAGUUCCUGUUGUAGAUUCUUAUUAUUCAUUGU  0.102
10. AGUCAGACAAAUCGCUCCAGGGCAAACUGGAAAGAUUGCUGAUU  0.0858
11. ACGUGAGUCUUGUAAAACCUUCUUUUUACGUUUACUCUCGU  0.0619
12. ACCCUCAAAAAGAGAUGGCAACUAGCACUCUCCAAGGGU  0.0435
13. AGUGAGUACACUGGUAAUUACCAGUGUGGUCACU [SHAPE_invivo_SARS-CoV-2_Motif_119]  0.0249
14. ACGUGGCUUUGGAGACUCCGUGGAGGAGGUCUUAUCAGAGGCACGU  0.0243
15. ACACGGUGUUUAAACCGUGU  -0.00656
16. ACACUAAUUCUUUCACACGUGGUGU [DMSMaPseq_invitro_SARS-CoV-2_Motif_381]  -0.0877
17. AGUGAUGGAACU [DMSMaPseq_invitro_SARS-CoV-2_Motif_229]  -0.117
18. AGUGCCAACAGACAAUUAUAUAACCACUUACCCGGGUCAGGGUUUAAAUGGUUACACU  -0.123
19. ACAGACUUCAUUAAGAUGUGGUGCUUGCAUACGUAGACCAUUCUUAUGUUGUAAAUGCUGUUACGACCAUGUCAUAUCAACAUCACAUAAAUUAGUCUUGUCUGU  -0.127
20. ACCAGGAGUUUUCUGUGGUGUAGAUGCUGUAAAUUUACUUACUAAUAUGUUUACACCACUAAUUCAACCUAUUGGU [SHAPE_invitro_SARS-CoV-2_Motif_181]  -0.13
21. ACUAAAAUAAAACCUCAUAAUUCACAUGAAGGUAAAACAUUUUAUGUUUUACCUAAUGAUGACACUCUACGUGUUGAGGCUUUUGAGU [DMSMaPseq_invitro_SARS-CoV-2_Multi_18_ComplexLevel_1]  -0.146
22. ACAUAGCAGUGGUGUUACCCGUGAACUCAUGCGUGAGCUUAACGGAGGGGCAUACACUCGCUAUGU  -0.167
23. AGUCAUAACAAGAGAAGUGGGUUUUGUCGUGCCUGGUUUGCCUGGCACGAUAUUACGCACAACUAAUGGUGACU [DMSMaPseq_invitro_SARS-CoV-2_Motif_162]  -0.178
24. ACCUGCUCAGUAUGAACUUAAGCAUGGU  -0.184
25. ACCAAUGUGCUAUGAGGCCCAAUUUCACUAUUAAGGGUUCAUUCCUUAAUGGUUCAUGUGGUAGUGUUGGU [SHAPE_invivo_SARS-CoV-2_Multi_27_ComplexLevel_1]  -0.186
26. AGGUUGGUAUGCAAAAGUAUUCUACACUCCAGGGACCACCUGGUACUGGUAAGAGUCAUUUUGCUAUUGGCCU  -0.203
27. ACCAUUCUUCGUAAGGGUGGU  -0.207
28. ACCUUUAGUACCUUUCUGGAUAACAAUUGCUUAUAUCAUUUGUAUUUCCACAAAGCAUUUCUAUUGGU  -0.225
29. ACAGUCUGUACCGUCUGCGGUAUGUGGAAAGGUUAUGGCUGU  -0.231
30. ACAAUGGCAGACCUCGUCUAUGCUUUAAGGCAUUUUGAUGAAGGUAAUUGU  -0.242
31. ACAUUUUAUCUUACUAAUGAUGU [SHAPE_invivo_SARS-CoV-2_Motif_191]  -0.249
32. AGUCAUAGUCAGUUAGGUGGUUUACAUCUACUGAUUGGACU  -0.281
33. ACAAGGCUAUUGAUGGUGGUGUCACUCGUGACAUAGCAUCUACAGAUACUUGU [SHAPE_invitro_SARS-CoV-2_Motif_170]  -0.287
34. ACAGAGACUGAUAGUAAGUUCUCUGU [IAV_invivo_NA_6_Motif_16+IAV_invivo_NA_6_Motif_16]  -0.328
35. ACGACGACUACUAGCGUGCCUUUGUAAGCACAAGCUGAUGAGUACGAACUUAUGUACUCAUUCGUUUCGGAAGAGACAGGUACGUUAAUAGUUAAUAGCGU  -0.333
36. ACAGUAUGUCUUUUGUACUGU  -0.336
37. ACUAAAAAUGU [SHAPE_invitro_SARS-CoV-2_Motif_381]  -0.343
38. ACCUCGUCUAUGCUUUAAGGCAUUUUGAUGAAGGU  -0.357
39. ACCAUUUAAUGAUGGU [DMSMaPseq_invitro_SARS-CoV-2_Motif_383]  -0.365
40. AGUAUGGCUACAUACU [DMSMaPseq_invitro_SARS-CoV-2_Motif_53]  -0.367
41. ACACAUUCUGACAAAUUCACAGAUGGUGU [SHAPE_invitro_SARS-CoV-2_Motif_350]  -0.395
42. AGUGUAAAAGUGCCUUUUACAUU [DMSMaPseq_invitro_SARS-CoV-2_Motif_79]  -0.399
43. ACAUACUAGGACCUCUUUCUGCUCAAACUGGAAUUGCCGUUUUAGAUAUGU [DMSMaPseq_invitro_SARS-CoV-2_Motif_193]  -0.407
44. AGGUCCAGACAUGUUCCUCGGAACUUGUCGGCGUUGUCCU  -0.441
45. ACAAGAUGAUAAGAAAAUCAAAGCUUGU  -0.459
46. ACAGAAUGCUGU  -0.472
47. ACCACCAAUUAAAGAUUUUGGUGGU [SHAPE_invitro_SARS-CoV-2_Motif_434]  -0.49
48. ACAUCAGCUUGUGUUUUGGCUGCUGAAUGU  -0.534
49. ACCAGUUAACUGGU [SHAPE_invitro_SARS-CoV-2_Motif_121]  -0.55
50. ACAGGUUUUAUCGAACCUGU [IAV_invivo_PB1_2_Motif_25+IAV_invivo_PB1_2_Motif_25]  -0.571
51. AGUACACCUUUGAAAAAGGUGACU  -0.572
52. AGGUAAGUAUGAUACUUACCUG [U1snRNP5ss-2]  -0.581
53. ACAUCUCUGGCAUUAAUGCUUCAGUUGU [SHAPE_invivo_SARS-CoV-2_Motif_471]  -0.583
54. ACAACAGGAGUCACCUUUUGU [DMSMaPseq_invitro_SARS-CoV-2_Motif_108]  -0.592
55. ACAGGAGUCACCUUUUGU [SHAPE_invitro_SARS-CoV-2_Motif_112]  -0.599
56. ACAUUACACCAUGU [SHAPE_invivo_SARS-CoV-2_Motif_439]  -0.6
57. AGGUAAAACCAACAGUGGUUGUUAAUGCAGCCAAUGUUUACCU  -0.615
58. AGGUCAAAUCAAUGAUAUGAUUUUAUCU [SHAPE_invitro_SARS-CoV-2_Motif_388]  -0.624
59. AGUCCCUGUUGCUAUUCAUGCAGAUCAACUUACUCCUACUUGGCGUGUUUAUUCUACAGGUUCUAAUGUUUUUCAAACACGUGCAGGCUGUUUAAUAGGGGCU  -0.638
60. ACAACCCUUAAGGGUGU [SHAPE_invivo_SARS-CoV-2_Motif_115]  -0.665
61. ACCUAAAUAGAGGU  -0.686
62. ACAUGCCAAUUUAGAUUCUUGCAAAAGAGUCUUGAACGUGGUGUGU  -0.712
63. ACAGCAGAGUGCUGU [IAV_invivo_M1_M2_7_Motif_17+IAV_invivo_M1_M2_7_Motif_17]  -0.794
64. ACAGAUCUUUACCAGGAGUUUUCUGU  -0.827
65. AGUCUUGUAGUGCGUUGUUCGUUCUAUGAAGACU  -0.844
66. ACCAUUGGUAGAUUUGCCAAUAGGU  -0.848
67. ACCUUUAAUUGAAUUGUGCGUGGAUGAGGCUGGUUCUAAAUCACCCAUUCAGUACAUCGAUAUCGGU [SHAPE_invivo_SARS-CoV-2_Motif_532]  -0.862
68. ACACUCUACGUGU  -0.979

From the supplement of paper PMC11865577
